2 proteins from paper PMC7822847, “Structural insights into vesicle amine transport-1 (VAT-1) as a member of the NADPH-dependent quinone oxidoreductase family” (Scientific Reports, 2021) can be followed below.

Series [1] concerns the molecule itself. Briefly: SEC; Superdex 200 (10/30), 10 mM Tris–HCl pH 7.2, 100 mM NaCl, 0.5 mM TCEP, 8 °C; low concentration (samples loaded at 10, 20, 50 µM; also with 10-fold molar NADP); monomers to dimer. Background: In gel filtration, larger molecules generally elute earlier.
Series [2] concerns the molecule itself. Put plainly: SEC; Superdex 200 (10/30), 10 mM Tris–HCl pH 7.2, 100 mM NaCl, 0.5 mM TCEP, 8 °C; higher concentrations (loaded at 300 µM, no NADP); dimers to tetramer (dimer–dimer).
Series [3] deals with the molecule itself. Briefly: crystal structure; free form of VAT-1 (43–393), 2.3 Å; crystals from 100 mM BisTris pH 6.0, 200 mM sodium nitrate, 22% PEG 3350, 20 °C.

B1: human VAT-1 (full-length, 1–393 residues) (natural protein, UniProt Q99536 1-393, looked up)
chain: MSDEREVAEAATGEDASSPPPKTEAASDPQHPAASEGAAAAAASPPLLRCLVLTGFGGYDKVKLQSRPAAPPAPGPGQLTLRLRACGLNFADLMARQGLYDRLPPLPVTPGMEGAGVVIAVGEGVSDRKAGDRVMVLNRSGMWQEEVTVPSVQTFLIPEAMTFEEAAALLVNYITAYMVLFDFGNLQPGHSVLVHMAAGGVGMAAVQLCRTVENVTVFGTASASKHEALKENGVTHPIDYHTTDYVDEIKKISPKGVDIVMDPLGGSDTAKGYNLLKPMGKVVTYGMANLLTGPKRNLMALARTWWNQFSVTALQLLQANRAVCGFHLGYLDGEVELVSGVVARLLALYNQGHIKPHIDSVWPFEKVADAMKQMQEKKNVGKVLLVPGPEKEN
notes: Written as the protomer; dimer at low concentration, tetramer at 300 µM by SEC; also called vesicle amine transport protein-1; source: E. coli Rosetta 2 (DE3), purified (Glutathione Sepharose, HRV 3C cleavage, HiTrap SP, Superdex 200); not shown: GST, N-terminal, cleaved
With B1, the results for the “stoichiometry N” value in series [1] and in series [2] were 2 and 4, respectively.

B2: N-truncated human VAT-1 (43–393 residues) (domain or fragment, UniProt Q99536 43-393, looked up)
chain: ASPPLLRCLVLTGFGGYDKVKLQSRPAAPPAPGPGQLTLRLRACGLNFADLMARQGLYDRLPPLPVTPGMEGAGVVIAVGEGVSDRKAGDRVMVLNRSGMWQEEVTVPSVQTFLIPEAMTFEEAAALLVNYITAYMVLFDFGNLQPGHSVLVHMAAGGVGMAAVQLCRTVENVTVFGTASASKHEALKENGVTHPIDYHTTDYVDEIKKISPKGVDIVMDPLGGSDTAKGYNLLKPMGKVVTYGMANLLTGPKRNLMALARTWWNQFSVTALQLLQANRAVCGFHLGYLDGEVELVSGVVARLLALYNQGHIKPHIDSVWPFEKVADAMKQMQEKKNVGKVLLVPGPEKEN
notes: Written as the protomer; homodimer in both crystal forms, dimer to tetramer (dimer-dimer) in solution by SEC; also called vesicle amine transport protein-1; source: E. coli Rosetta 2 (DE3), purified (Glutathione Sepharose, HRV 3C cleavage, HiTrap SP, Superdex 200); not shown: GST, N-terminal, cleaved
For the protein B2, the “stoichiometry N” value in series [3] is 2.

The stoichiometry N is the number of molecules, sites or subunits per partner or assembly.
